Test results as given in patent publication US20190194664.

System: eGFP-Polη

With “Rad18 mutant lacking the residues phosphorylated by the Cdc7 kinase (Rad18Δ401-445)” as the substance, how does the “suppression of UV-dependent Chk1 phosphorylation” value read?
Its value is “this mutant did not either suppress Chk1 phosphorylation”.
